Results taken from article PMC7190724, “Improved GPCR ligands from nanobody tethering” (Nature Communications, 2020).

Key:
[1] = target: T1, rat PTHR1 (Rattus norvegicus, UniProt P25961); experiment: flow cytometry on cells; HEK293 cell lines stably transfected with PTHRs, in suspension, incubated on ice with 100 nM VHH sortagged with Alexafluor647, pelleted, washed and analysed; details: one partner purified
T1 construct: parathyroid hormone receptor-1, rat; also called rPTHR1; source: HEK293, stably transfected (GR35), on cells

[2] = target: T2, PTHR1_(6E) (Homo sapiens PTHR1 with 14-residue …, UniProt Q03431, chimera); experiment: flow cytometry on cells; dose response of staining with VHH-Alexafluor647 (median fluorescent intensity); cells in PBS, 1 h on ice; curves without plateau constrained to the plateau seen with other VHHs; details: one partner purified
T2 construct: PTHR1 from its start to the replaced 14-residue fragment of exon 2; replaces 14 residues of exon 2; PTHR1 from the end of the replaced fragment of exon 2 to its end; Made with the Q5 site-directed mutagenesis kit; whole receptor on cells; source: HEK293, stably transfected, on cells
T2 sequence (Q03431 whole entry, looked up, change not shown, the tested form may be a part): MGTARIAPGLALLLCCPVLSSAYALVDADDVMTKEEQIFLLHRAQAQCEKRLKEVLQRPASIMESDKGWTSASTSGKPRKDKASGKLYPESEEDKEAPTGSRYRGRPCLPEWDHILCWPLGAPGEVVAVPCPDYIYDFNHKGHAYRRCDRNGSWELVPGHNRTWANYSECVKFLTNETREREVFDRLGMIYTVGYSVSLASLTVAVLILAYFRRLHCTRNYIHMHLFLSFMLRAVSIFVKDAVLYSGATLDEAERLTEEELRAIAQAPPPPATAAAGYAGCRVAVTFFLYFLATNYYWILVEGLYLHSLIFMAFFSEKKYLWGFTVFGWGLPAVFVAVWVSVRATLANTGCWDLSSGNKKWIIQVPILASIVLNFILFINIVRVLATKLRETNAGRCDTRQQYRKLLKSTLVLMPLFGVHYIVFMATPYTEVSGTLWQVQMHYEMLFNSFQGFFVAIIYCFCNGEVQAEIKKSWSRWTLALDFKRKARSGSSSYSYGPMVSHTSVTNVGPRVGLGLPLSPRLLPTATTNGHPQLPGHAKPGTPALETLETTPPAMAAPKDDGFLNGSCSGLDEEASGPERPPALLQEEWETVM

T1 sequence (P25961 27-591): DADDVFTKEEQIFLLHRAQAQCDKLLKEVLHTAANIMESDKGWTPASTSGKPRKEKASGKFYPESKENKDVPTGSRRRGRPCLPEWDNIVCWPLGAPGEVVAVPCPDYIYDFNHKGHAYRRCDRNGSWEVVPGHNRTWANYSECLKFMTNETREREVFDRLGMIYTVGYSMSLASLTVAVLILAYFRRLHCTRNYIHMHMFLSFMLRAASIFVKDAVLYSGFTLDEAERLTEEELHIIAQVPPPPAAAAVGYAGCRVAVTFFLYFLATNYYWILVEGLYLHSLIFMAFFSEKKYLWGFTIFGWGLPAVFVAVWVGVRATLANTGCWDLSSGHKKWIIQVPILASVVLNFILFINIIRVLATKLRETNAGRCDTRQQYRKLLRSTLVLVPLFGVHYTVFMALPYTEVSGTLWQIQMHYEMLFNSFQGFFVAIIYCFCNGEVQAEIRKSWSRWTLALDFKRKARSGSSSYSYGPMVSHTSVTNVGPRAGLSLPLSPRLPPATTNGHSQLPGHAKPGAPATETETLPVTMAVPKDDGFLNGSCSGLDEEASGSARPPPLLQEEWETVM

Binder	binding result [1]	EC50 [2]
VHH_(PTHR) (VHH, VHH 22A3; sortase motif of the expressed construct PelB-VHH-LPETGG-His6; on sortagging what follows LPET is replaced by the GGG of the label; Expressed as PelB-VHH-LPETGG-His6; also called 22A3; VHH_(PTHR)-tetramethylrhodamine; source: E. coli WK6 (pHEN6 vector), osmotic shock, purified (Ni-NTA), then sortagged; not shown: His6, C-terminal, cleaved) VHH: EVQLVESGGGLVQAGGSLRLSCAASGNIFANNIMGWYRQPPGKEREFVAHVSHDGDSMYAVSVKGRFAISRKDATNLYLQMNSLKPEDTAIYFCRLLNIPTQGRMEGFWGQGTQVTVSS	binds	
VHH6E (VHH, VHH05; sortase motif of the expressed construct PelB-VHH-LPETGG-His6; on sortagging what follows LPET is replaced by the GGG of the label; Recognises a 14-mer peptide of UBC6e; also called VHH05; source: E. coli WK6 (pHEN6 vector), osmotic shock, purified (Ni-NTA), then sortagged; not shown: His6, C-terminal, cleaved) VHH: QVQLQESGGGLVQPGGSLRLSCAASGFVFENSAMAWYRQAPGKERELIAVIGTTFIKLAESVKGRFTISRDNAKSTVYLQMNNLKPEDTAVYYCSKSGAYWGQGTQVTVSS		< 10 nM
